Here are results for 51 sequences from the Immune Epitope Database (IEDB).

Targets include HLA-A*02:01; HLA-A*24:02; HLA-A*01:01; HLA-B*44:02; HLA-A*03:01; HLA-B*07:02.
Assay in all cases: IEDB peptide-MHC binding, purified MHC/competitive/fluorescence; filed as Kd, often an IC50 or EC50 that approximates it; ≥ and ≤ were set here for values at or beyond the usual limits of such assays
Conditions in all cases: source organism: Plasmodium falciparum

Sequence CKMEKCSSV displayed a Kd in the assay with HLA-A*02:01 not below 100 µM. In the assay with HLA-A*24:02, CKMEKCSSVF displayed a Kd not below 250 µM. CSSVFNVVN: the Kd with HLA-A*01:01 is not below 82.5 µM.

Regarding DELDYANDI, the Kd with HLA-B*44:02 was not below 277 µM. Same read-out and setting: the figure for DENANANNA is not below 896 µM. The sequence ELDYENDIEK returned a dissociation constant Kd with HLA-A*01:01 not below 100 µM. With EWSPCSVTCG, the Kd in the assay with HLA-A*24:02 was not below 685 µM. As to HIKEYLNKI, the Kd in the assay with HLA-A*02:01 was not below 259 µM. Same read-out and setting: the figure for HITEYLKKI is not below 148 µM. In the assay with HLA-A*03:01, IEKKICKMEK registered an equilibrium dissociation constant (Kd) not below 100 µM.

Consider IEQYLKKIQY, for which the dissociation constant (Kd) with HLA-B*44:02 was not below 157 µM; in the assay with HLA-A*01:01, not below 100 µM. For IQNSLSTEW, the Kd with HLA-A*24:02 is not below 21.3 µM; with HLA-B*44:02 it was not below 136 µM. KDELDYENDI yielded a Kd with HLA-B*44:02 not below 100 µM. In the assay with HLA-B*44:02, KEYLNKIQNS returned a Kd not below 100 µM. As for KMEKCSSVF, the Kd with HLA-B*07:02 and with HLA-A*01:01 was not below 100 µM each time. As to KPGSADKPKD, the Kd with HLA-B*07:02 was not below 100 µM. Still for that read-out and setting: the result for KPGSANKPKD reads not below 100 µM. In the assay with HLA-A*03:01, LDYANDIEK showed a Kd not below 100 µM. As to LIMVLSFLF, in the assay with HLA-A*24:02, the Kd worked out at 19.3 µM. Take LSTEWSPCS: in the assay with HLA-A*01:01, the Kd was not below 100 µM. Regarding MEKCSSVFN, the Kd with HLA-B*44:02 is not below 143 µM.

Consider MPNDPNRNV, for which the figures for the Kd with HLA-B*07:02 and with HLA-B*44:02 were not below 511 µM and not below 100 µM, respectively. Take NEEPSDKHI: the Kd with HLA-B*44:02 was not below 100 µM. Take NEEPSDKHIK: the Kd in the assay with HLA-B*44:02 and with HLA-A*01:01 was not below 100 µM in each case. The sequence NEEPSDQHI gave a Kd with HLA-B*44:02 not below 100 µM. In the assay with HLA-B*07:02, NPDPNANPNV displayed a Kd not below 100 µM. NPNANPNAN came in with a Kd with HLA-B*07:02 not below 100 µM. In turn, NPNANPNANP showed a Kd in the assay with HLA-B*07:02 not below 100 µM. In the assay with HLA-B*07:02, NPNVDPNANP came in with an equilibrium dissociation constant (Kd) not below 100 µM. The sequence NSSIGLIMV showed a Kd in the assay with HLA-A*01:01 not below 215 µM. As to NVDENANAN, the Kd in the assay with HLA-A*01:01 is not below 100 µM. Same read-out and setting: the figure for NVDENANANN is not below 667 µM. On to NVDPNANPNV, for which the Kd in the assay with HLA-A*01:01 is not below 100 µM. Still for that read-out and setting: the result for PSDKHIEQY reads 2 µM; that for PSDKHIKEY, not below 24.8 µM. Regarding PSDKHITEY, the Kd with HLA-A*01:01 amounted to 2.67 µM. Turning to QLDYENDIEK, the Kd in the assay with HLA-A*01:01 is not below 726 µM; with HLA-A*03:01 it was not below 100 µM. QVRIKPGSA: the Kd with HLA-B*07:02 was not below 134 µM. Turning to RIKPGSADK, in the assay with HLA-A*03:01, the dissociation constant (Kd) turned out to be 17.7 µM.

Consider RIKPGSANK, for which the Kd with HLA-A*03:01 was not below 21.3 µM.

SADKPKDQLD displayed a Kd with HLA-A*01:01 of 8.97 µM.

SPCSVTCGNG registered a Kd with HLA-B*07:02 not below 100 µM. For STEWSPCSV, the Kd with HLA-A*01:01 worked out at 3.18 µM. As for SVFNVVNSSI, the Kd with HLA-B*07:02 was not below 100 µM; in the assay with HLA-A*02:01, not below 342 µM; with HLA-A*03:01 it was not below 100 µM.

In the case of SVTCGNGIQV, the results for the equilibrium dissociation constant (Kd) with HLA-B*07:02 and in the assay with HLA-A*02:01 were not below 100 µM and not below 489 µM, respectively. Take TEWSPCSVT: the Kd with HLA-B*44:02 is not below 100 µM. As to TEYLKKIQN, in the assay with HLA-B*44:02, the Kd was not below 100 µM. Take VTCGNGIQV: the dissociation constant (Kd) with HLA-A*01:01 and with HLA-A*03:01 was not below 100 µM each time. YLKIIQNSL gave a Kd with HLA-A*02:01 of 4.88 µM. In other words, the single-digit micromolar range. On to YLKKIQNSL, for which the Kd in the assay with HLA-B*07:02 turned out to be 9.2 µM; with HLA-A*02:01, 2.18 µM; with HLA-A*24:02, 11.2 µM. For the sequence YLKKIQYSL, the Kd with HLA-A*02:01 came out at 2.58 µM.
